From patent publication US20200000897A1 (published 2020)

B1: MLYYPSVSR (peptide)
peptide: MLYYPSVSR
B2: LLLAAVTVK (peptide)
peptide: LLLAAVTVK
B3: RLYAPVVNISRL (peptide)
peptide: RLYAPVVNISRL
B4: ALSRMSQQY (peptide)
peptide: ALSRMSQQY
B5: RMGFRTLSK (peptide)
peptide: RMGFRTLSK
B6: KLQNLPTLLY (peptide)
peptide: KLQNLPTLLY
B7: TRMQKAGFLYY (peptide)
peptide: TRMQKAGFLYY
B8: RVYPHKTLY (peptide)
peptide: RVYPHKTLY
B9: SLRGSFPILY (peptide)
peptide: SLRGSFPILY
B10: TVFLSKYLKK (peptide)
peptide: TVFLSKYLKK
B11: KIICGVHYLY (peptide)
peptide: KIICGVHYLY
B12: VSIRNTLLY (peptide)
peptide: VSIRNTLLY
B13: KLFMPRPK (peptide)
peptide: KLFMPRPK
B14: IIFIPATILLK (peptide)
peptide: IIFIPATILLK
B15: RLLPGKVVWK (peptide)
peptide: RLLPGKVVWK
B16: QVLDLQSVK (peptide)
peptide: QVLDLQSVK
B17: KMMKRLMTVEK (peptide)
peptide: KMMKRLMTVEK
B18: SLLEADPFLK (peptide)
peptide: SLLEADPFLK
B19: MKTLPAMLGTGK (peptide)
peptide: MKTLPAMLGTGK
B20: ATNGKVLKK (peptide)
peptide: ATNGKVLKK
B21: AATIISSAK (peptide)
peptide: AATIISSAK
B22: ALLGVIIAKK (peptide)
peptide: ALLGVIIAKK
B23: VAFFVLPSK (peptide)
peptide: VAFFVLPSK
B24: AVVQGLVEK (peptide)
peptide: AVVQGLVEK
B25: RIYVYVKRK (peptide)
peptide: RIYVYVKRK
B26: RLYDAYVNR (peptide)
peptide: RLYDAYVNR
B27: KINPTASLK (peptide)
peptide: KINPTASLK
B28: VSYNRLIK (peptide)
peptide: VSYNRLIK
B29: VIGTTSSPK (peptide)
peptide: VIGTTSSPK
B30: RIGNKGIYK (peptide)
peptide: RIGNKGIYK
B31: ATNGKVLKKR (peptide)
peptide: ATNGKVLKKR
B32: ATSPPASVR (peptide)
peptide: ATSPPASVR
B33: TVFVELWLK (peptide)
peptide: TVFVELWLK
B34: GGLSSQGVYY (peptide)
peptide: GGLSSQGVYY
B35: ASLAAAVLAK (peptide)
peptide: ASLAAAVLAK
B36: ATIGLSVSK (peptide)
peptide: ATIGLSVSK
B37: SLFEGIYTIK (peptide)
peptide: SLFEGIYTIK
B38: KVFAEHKISY (peptide)
peptide: KVFAEHKISY
B39: LLRSGLTLR (peptide)
peptide: LLRSGLTLR
B40: VSLGIAVSK (peptide)
peptide: VSLGIAVSK
B41: TVYVAMCHKF (peptide)
peptide: TVYVAMCHKF
B42: SLLKPSGDYFK (peptide)
peptide: SLLKPSGDYFK
B43: RALGVPFVPR (peptide)
peptide: RALGVPFVPR
B44: ILNLNKMVK (peptide)
peptide: ILNLNKMVK
B45: RVDSKQRYY (peptide)
peptide: RVDSKQRYY
B46: AVAFFVLPSK (peptide)
peptide: AVAFFVLPSK
B47: KTLGKIAEK (peptide)
peptide: KTLGKIAEK
B48: KVASFTVIGY (peptide)
peptide: KVASFTVIGY
B49: RLAQYTIER (peptide)
peptide: RLAQYTIER
B50: PLAMLAATCNK (peptide)
peptide: PLAMLAATCNK
B51: GLAAGALLLY (peptide)
peptide: GLAAGALLLY
B52: SLLTVSGAWAK (peptide)
peptide: SLLTVSGAWAK
B53: VVYDTMIEK (peptide)
peptide: VVYDTMIEK
B54: SPRVYWLGLNDR (peptide)
peptide: SPRVYWLGLNDR
B55: KVLTRNIEY (peptide)
peptide: KVLTRNIEY
B56: ASSFRPLLSK (peptide)
peptide: ASSFRPLLSK
B57: LIGPLLICK (peptide)
peptide: LIGPLLICK
B58: KIKKPLSYR (peptide)
peptide: KIKKPLSYR
B59: RLRDYISSLK (peptide)
peptide: RLRDYISSLK
B60: VSLSKMLKK (peptide)
peptide: VSLSKMLKK
B61: AILHPFRAK (peptide)
peptide: AILHPFRAK
B62: TLLSYELAFK (peptide)
peptide: TLLSYELAFK
B63: ALARVSSVKL (peptide)
peptide: ALARVSSVKL
B64: SIYKKAVYR (peptide)
peptide: SIYKKAVYR
B65: LASSPAGHK (peptide)
peptide: LASSPAGHK
B66: TIASVLVAR (peptide)
peptide: TIASVLVAR
B67: VVYDTMIEKF (peptide)
peptide: VVYDTMIEKF

Target: T1, HLA-A*03:01 (human)
T1 construct: MHC class I monomer first loaded with a UV-sensitive peptide that is cleaved by UV irradiation and exchanged for the test peptide; captured on streptavidin plates; also called peptide-receptive MHC molecules
Experiment: UV-ligand exchange, anti-b2m ELISA; peptide exchange yield grade (>10% +, >20% ++, >50% +++, >75% ++++)
From the text: Candidate peptides for T cell based therapies according to the present invention were further tested for their MHC binding capacity (affinity). The individual peptide-MHC complexes were produced by UV-ligand exchange, where a UV-sensitive peptide is cleaved upon UV-irradiation and exchanged with the peptide of interest as analyzed. Only peptide candidates that can effectively bind and stabilize the peptide-receptive MHC molecules prevent dissociation of the MHC complexes. To determine the yield of the exchange reaction, an ELISA was performed based on the detection of the light chain (β2m) of stabilized MHC complexes. The assay was performed as generally described in Rodenko et al. (Rodenko et al., 2006)
96 well MAXISorp plates (NUNC) were coated over night with 2 ug/ml streptavidin in PBS at room temperature, washed 4× and blocked forl h at 37° C. in 2% BSA containing blocking buffer. Refolded HLA-A*02:01/MLA-001 monomers served as standards, covering the range of 15-500 ng/ml. Peptide-MHC monomers of the UV-exchange reaction were diluted 100-fold in blocking buffer. Samples were incubated for 1 h at 37° C., washed four times, incubated with 2 ug/ml HRP conjugated anti-β2m for 1 h at 37° C., washed again and detected with TMB solution that is stopped with […]. Absorption was measured at 450 nm.

Row | peptide exchange yield [%] | Binder
1 | > 75 | B1
2 | 20 to 50 | B2
3 | 50 to 75 | B3
4 | > 75 | B4
5 | > 75 | B5
6 | 50 to 75 | B6
7 | 20 to 50 | B7
8 | 50 to 75 | B8
9 | 10 to 20 | B9
10 | 50 to 75 | B10
11 | 10 to 20 | B11
12 | 10 to 20 | B12
13 | 50 to 75 | B13
14 | > 75 | B14
15 | > 75 | B15
16 | 20 to 50 | B16
17 | > 75 | B17
18 | 50 to 75 | B18
19 | 20 to 50 | B19
20 | > 75 | B20
21 | 10 to 20 | B21
22 | > 75 | B22
23 | 20 to 50 | B23

Row | peptide exchange yield [%] | Binder
24 | 20 to 50 | B24
25 | 50 to 75 | B25
26 | > 75 | B26
27 | 50 to 75 | B27
28 | 50 to 75 | B28
29 | 50 to 75 | B29
30 | 50 to 75 | B30
31 | > 75 | B31
32 | > 75 | B32
33 | 20 to 50 | B33
34 | 20 to 50 | B34
35 | 50 to 75 | B35
36 | > 75 | B36
37 | > 75 | B37
38 | 50 to 75 | B38
39 | 20 to 50 | B39
40 | 20 to 50 | B40
41 | > 75 | B41
42 | 50 to 75 | B42
43 | > 75 | B43
44 | 50 to 75 | B44
45 | > 75 | B45
46 | > 75 | B46

Row | peptide exchange yield [%] | Binder
47 | > 75 | B47
48 | 50 to 75 | B48
49 | > 75 | B49
50 | 20 to 50 | B50
51 | 20 to 50 | B51
52 | > 75 | B52
53 | 50 to 75 | B53
54 | 10 to 20 | B54
55 | 50 to 75 | B55
56 | 50 to 75 | B56
57 | > 75 | B57
58 | > 75 | B58
59 | > 75 | B59
60 | 50 to 75 | B60
61 | 50 to 75 | B61
62 | > 75 | B62
63 | 50 to 75 | B63
64 | > 75 | B64
65 | 50 to 75 | B65
66 | 20 to 50 | B66
67 | > 75 | B67
